No end group written: not given here.

B1: 3 (protein)
chain: MGFHIQRYIAMMGRGINPKTWKKLWVDSKNKQIIHVYNDVAEFMNNQIAQVVRVYQYRY
modifications: also: human Fc-tagged dimer
B2: 47 (protein)
chain: NNIAHKEDDCGASELAIKKLQELKKFELDILKDFIKKDTDHTDMYKRYHCISSDFLKNTKQEDKKEDNYAKKEDKKDIENSANYIINNKNEKISFINKIISFVGMWNYNKYGNNIQESKNKINIYNNNNNKAENELLYNKEDYTNHIPTNENPNSYMQLSAFNLAKKSMFLGGKDNAAQNFEVGNYGSFYMIFGARNTDYPWACSCDTLQLEEYKEKKRSYVLCSNQLDMSIQNSDLFCNPKN
modifications: bait human Fc-tagged dimer
B3: 10 (protein)
chain: FRKYDKNKNKILISHSINNNNNAIKNNNNNNNAIKNNNNNNNAIKNNNNNNNAFSATSFSSEKNKNKAYTNVLKKKNIYIREESNKATNIKEDEEKNKKINNNDKETNYAFLSLKFFPFILTSLLHTGINQIPRNTEIELYEFEKSPMIRHMLVAEERKN
modifications: bait human Fc-tagged dimer
B4: 36 (protein)
chain: QDEKSVKNICVCDFTDKLNFLPLEKTKILCELKPQYGEDIKIIANKEYEINCMNNAKVFCPLKDTFINNANIKLYSPKLHFEIKDITHKGKNAALYYLKIDEEASDIFFSCSIKPKQVSGLLEGEVRVNLKKHINEEYSIFNEEEDVHVCDFSKGNLDITPSAGFYLKNSRNVACIYRVIPNKLFLIKLPKLDIVTEKLLPSIVNCLSEFSFINFALKHVQEGDNYISFNVIFGEFKKHFNLACSLDLSDFQQEPCNLGKTANIAFIFSK
modifications: bait human Fc-tagged dimer
B5: 71 (protein)
chain: EERYNFNMDKMLKITCHINLHLKKNPHFTITYKKNLQECIDSCKTNIYCTGIEFSRKRVEYTQIILKNNKKIILGYFKCKQFYFQNIYDYSSYNLDSYLNEHIENQINIKSTLTYTNFIMRNKPDIIYTCSIDRDPKYLLYKNYKLVECVIGKFCPGNNAPYMISCPINSATIIPASEDVNKCLCLKGYSYVGVTSYRCSLCDRGSYKNSVGNNKCDNCPLTFSTTHRGSTNIKDCSCTSGNYLTFD
modifications: bait human Fc-tagged dimer
B6: 20 (protein)
chain: DIIIVDSNKDIQGFDPNSVLNLAENVFNIFLDTKTNNADIKTVYSSIFSNSKVTIDGTCSSMKELIKGRSLKYLDELGTEEYVNSDDVFNFAIFVYTVNGQPDIIQQVYKKHPNYISYIITCKESELFDNIEDAKDNKNVFHTNP
modifications: bait human Fc-tagged dimer
B7: 79 (protein)
chain: YLEQIKNGISGHYTEDHNIKNNNCISFSDYERSIKNFAISSHAENNYDNIINEYKKIKDINNNINILSSVHRKGRILYDSFLEINKLENDKKEKHEKEDEYEDNDESFLETEEYEDNEDEKYNKDEDDYAESFIETDEYEDNEDDKYNKDEDDYSESFIETDEYDDNEEEQYNKDEDDYTDSFIETDHYENNDDKNEEEEEYNDQDNDYGYNFLETDEYDDSEEYDYDDKEYGESFLEKEEGEEMKDEEMKDEEMKDVEMKDEEMKDEEMKYDEMKNEEMKYDEMKDEVMKDEEMKDEVMKDEEMKDEQMKYEEFKNEESKNEESKNEESKNEESKNEEFKNEESKNEEFKNEEFKNEDMSYDEYMGYKKKEEDESYNTFNGAKKNNAANSFLEKDLQGDSDDELHSTFYSKNVDKENYDDKNIFYGYSDNDDESFLETDSYEEYEDEDKDVEDEYEESFLQNDEKKMVFYDLYKPEENEAYYEKKQKKEEKEEKEEKEQSLNKQNDMEDQEDNEEYKFEEENKEDLLDVQQDEELPSEGKQKVKGKSFDNEHLNEIQNVADVHAFIQKDMKYLDDLIDEEQTIKDAVKKSAYKGNKKLGNNKKSQMILEEEPEENFEEDADEELNKLMEQEKNIVDKEIKNSKANKANKKLQFNNANKQNKMYMKNEYNNKAKNNKNNKFEQQNYDESYMDDDYEQNEEFNDNNQAEDMKETNELDKINDELLTDQGPNEDTLLENNNKIFDNKFVAHKKREKSISPHSYQKVSTKVQNKEDMENKEEKQLINDEAAMTAEELVELENTEDVNTPTMVETEEIDSDENGNKAS
modifications: bait human Fc-tagged dimer
B8: 88 (protein)
chain: FENAIKKTKNQENNLALLPIKSTEEEKDDIKNGKDIKKEIDNDKENIKTNNAKDHSTYIKSYLNTNVNDGLKYLFIPSHNSFIKKYSVFNQINDGMLLNEKNDVKNNEDYKNVDYKNVNFLQYHFKELSNYNIANSIDILQEKEGHLDFVIIPHYTFLDYYKHLSYNSIYHKSSTYGKCIAVDAFIKKINEAYDKVKSKCNDIKNDLIATIKKLEHPYDINNKNDDSYRYDISEEIDDKSEETDDETEEVEDSIQDTDSNHAPSNKKKNDLMNRAFKKMMDEYNTKKKKLIKCIKNHENDFNKICMDMKNYGTNLFEQLSCYNNNFCNTNGIRYHYDEYIHKLILSVKSKNLNKDLSDMTNILQQSELLLTNLNKKMGSYIYIDTIKFIHKEMKHIFNRIEYHTKIINDKTKIIQDKIKLNIWRTFQKDELLKRILDMSNEYSLFITSDHLRQMLYNTFYSKEKHLNNIFHHLIYVLQMKFNDVPIKMEYFQTYKKNKPLTQ
modifications: bait human Fc-tagged dimer
B9: 70 (protein)
chain: NTYIYLKQDSFVFSNEFPTVEEKNQALGENYEIVTLTTKDNHKFTCWYIKTKDSENKPIMLYFQGNGGYLEKYMNLFNLIIERVDVNIFSCSNRGCGSNIAKPSEEYFYKDAHVYIEYVKTKNPKHLFIFGSSMGAAVAIDTALKQHDHISGLIVQNAFTSLKELSRYSHPFLNYFLFDYDMIIRSKMDNEAKIKNIAVPTLFTLSEMDEKVPTSHTRTLFQLSASTNKQLYLSKGGTHPNILKNDDGSYHKAMKKFIVTAISIREKNIQKAVERNPNTPN
modifications: bait human Fc-tagged dimer
B10: 55 (protein)
chain: INVQIGNQKYSLCSNKIKKDLLDFYNTLGVSKSDKNLKDNIKKVNLYTKFRKRLYKDRLSIYANVAIKEKGEEVVPVKVVDEKENKENEEKTNILDQEIFTNFMQYNKNNFFCIDELGLDISIPFYKNSGFGANVVYQLPEMVYVNAYTNIYNTIIKGEFNSIDILKRISFFQFFDNFYLNAHYDFKSEKALLNLESKLYEYYNKHGDNIAFNNKIIVERNMHNEYDGSVCLSLKYNNNVFTPIFNFKDKTYEYVYDNLAANRKFSVKVDKERNVHFNYLSFDRVDESNKYFLFFNFIFSNPMQSIITLKREFIF
modifications: bait human Fc-tagged dimer
B11: 53 (protein)
chain: EKLISKLTKNGDLDLVLLYDIGFVDDSENDHMNSLENIAELGKNLLVRDNKNINLAYITYDDINVDLRIESRNNIGVDNENNYDKDNNAAYKFGSDKNIEEFRNVVLDTKLKSSYKNSAHLKALNYVGLKHFYNSEKESVKMVVMFMNTDGDYNNNNNNNMNNIASSYSAELNLVHYLFDRKNIILNIITRVAFKNYCHYIQQIGSNTNELLKCVLKNSFYNIAALTYEIIKYYDDISINAICHGWSEWSPCSVTCNMGYHFSKRDSLGYIKNSKSGLYKRKGRSCLEQRNLIIQECFNTACDHSLDICDNIYMDISILLDDSSNIALESWNKYIIPFVRKFITHFNINNNQINFALTTYSSHTYNWFNFANVLSKDKDKLLTYLEFFKFNFGSSTKNIKQAIQYMNDHVLNTNYRRNDAKKIMLIINSGEIDNKAVTSVPDIIQRLKDTHNVQVYSICINNQNVKNCRKLSTHSMEKYGSNFAFSLPNAADLRYNVLGIQKSICRNVAGAFRRKLRSGNKDDEDKKDDEYKEEDEYKEEDEYKEEDEYKEEDEYKEEDEYKEEDEYKEEDEDMKKDEDMKKDEDMKKDEYKKGYKDYKKDQSKNDNKAEERKDEGNIATSNEHHASEKTDDEDIITQYNEEDRHDNSNDNIIIDDEPVGQDNSIFKNENFFWGRGKHDSKYTSKLSINSLGDINEYNDDYNNYDYYDDDPTNRNKGFLKKNSIILKSLYNLNEDYVNNNINNDAGSTSSHCRNNNAGHNDIPHFKNMRKYNSETNIPCSSKSNKATNKKLLNRLYNMLFRKKKKYRIKNMDAHSKKKVEKFIENIKFSKENNDDNRKIDEQNIEIQFDTLLDGIFDFLQDYDNSALNAFNNAAPDDDFVYFSNTAPCGVSLMDFPIYDMENMEADVGGKRNDGDNNDDDDNNDDGDNNDDGDNNDDDDNDDKSNNNNNNNNNGDPSSNNNNNNNNNNGDPSSNNNNNNNGDPSSNNNDDGDADEKRNDYISQYNLVLKDKSHNNNYYMTNEHDERKIKKQENIDILSKEEDNIASNYNNELQRTKRSLDFPEIIIKENYENPKDIIHISKKEEANEANNAKGHINLKNKKEHNNVVDNVNPCNKQNINEEDNNINNAIKTARIGIFNKNKINCRNKKASKFDKIKRFNDKINKDNHPLITNVENKNEEIDVLQNNEDKKQKILPIIKNENAKETGQKYENNDVYEEHNKANINNNVEKLYKDKNSHHIKNQYDKGNLAENNEVTPIYSKDYDADDEEYEHWHGHQRDNKATP
modifications: bait human Fc-tagged dimer
B12: 57 (protein)
chain: NDLCSCNLKVRNNWEHFLQVYQNNGNFKMEILEPECTIQKNLPSEEEKEEFIDFDRKELLLHDFVVIKNSQFTDEKTLELYLSKEENNKAYLMLTFYLGDLKLMIGHNSPYEISLILNVATVNKNMANCKNNAYNIVLLKTTDVFNTADLEILEGPIQFSLGKSSGAFRINVANFFLNNAWKAFTKDKISFLIKPEENCYTILENKINKPQLLIEKKTTFYSEWGEWSNCAMDCDHPDNVQIRERECIHPSGDCFKGDLKESRPCIIPLPPCNELFSHKDNS
modifications: bait human Fc-tagged dimer
B13: 1 (protein)
chain: EVESSDSTSFLNLISGQSSSNSDDTVSSSDSRGVVASVSGTVDSDVSRTDSTGNVNSKNSELSETRQNSVEQNNNANSADNSIKIKSAFLKENVGVKITGPCDEGFGLVMVPHIIINVDTRNTDIQLGKKSSEINYGIKLRKKGKDEYEEKVGIDLLKNVCETGKNFKFVAYIKGDELIIKWKVIEEGNIPIDIKKFKIKRMSPPITSIQVFSSMSDEKSFVLENKNYVVTNNMPEKCEALATNCFLSGNIDIEKCYQCSLLVENDAKSDVCYNFISRENKEKLNEERFKVKGSTEYEESVESELKGAIDLLISSFYKSDGENGENVLISFEDLNSALEDDIINFCSLLKLVDLSGTFMNHQIGTTADAFNNIVKLLKEHKEEDEFVLRTKLRNPALCMKNVDDWVKSRCGLLTSDDSYVVIKKNSDTNGKNENNEANDEEYDGVIDLSTNENGNVKSIQFNDDIYCNDDYCNRWKNENNCISKIGVEDQGNCASSWAFASKLHFETLRCMKGYDHLGISALYLTNCAKGKISKRCTEGGNPAEFLEIVSNSGFLPTEFDYPYFYALVENSCPSGLNKWINLWEDVKLFDYKYEPNSIGSKGYSVYKSEMFKDNMDEYVKMIKSEIKNKGSVIAYINAQSVLTYDFNGKNILNMCGSKTTDHSINVIGYGHYKNKEGEEKSYWLVRNSWGYYWGDEGNFKVDMYGPSNCNYHFINTVLVFNIDIPMMNNNENNKKGLYNYFPKYTHEFYHNFYDQNFGSDNKISLINSNGANKNDVNNAYTVHGQSGETEVQPSQLRSTANQDSNRGAVTSDPLRTQPETTSTSVKKMDVFQVLKHVKNSKIKVGLIKYDNDDEIGAHHSCTRAYSFDPEKYDECVEFCRKNWEQCKDKPSPGFCLTKLDESKGCFFCYV
modifications: bait human Fc-tagged dimer

The assay addresses FGFR4 ectodomain (Homo sapiens, UniProt P22455). The experiment in a line: AVEXIS normalised luminescence.
In the case of B1, the binding score is 0.753. In turn, B2 registered a binding score of 0.93.

In turn, B3 displayed a binding score of 1.56. Under B4 stands 0.937; under B5, 1; under B6, 1.16.

B7 yielded a binding score of 1.06. B8: the binding score is 1.03. Under B9 stands 0.951. Under B10 stands 0.922; under B11, 1.23. In the case of B12 it was 0.899; in that of B13, 1.25.

These data come from publication PMC11098746 (2024).
